T1: human CD73 on cells (human, UniProt P21589 27-549)
T1 sequence: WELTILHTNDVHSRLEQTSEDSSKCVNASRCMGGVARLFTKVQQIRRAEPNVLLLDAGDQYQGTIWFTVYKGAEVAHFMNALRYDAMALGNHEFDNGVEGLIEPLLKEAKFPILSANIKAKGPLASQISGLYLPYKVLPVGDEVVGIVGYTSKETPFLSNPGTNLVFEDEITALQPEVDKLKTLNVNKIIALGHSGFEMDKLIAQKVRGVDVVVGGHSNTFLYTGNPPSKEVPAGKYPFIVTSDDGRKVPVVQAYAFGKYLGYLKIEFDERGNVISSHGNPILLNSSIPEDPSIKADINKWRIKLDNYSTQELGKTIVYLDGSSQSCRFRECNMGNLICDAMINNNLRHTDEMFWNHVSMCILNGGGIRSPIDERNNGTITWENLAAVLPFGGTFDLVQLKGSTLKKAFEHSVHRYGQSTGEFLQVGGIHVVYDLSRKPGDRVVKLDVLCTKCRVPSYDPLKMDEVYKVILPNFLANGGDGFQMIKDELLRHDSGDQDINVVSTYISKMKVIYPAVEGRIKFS

T2: N-hCD73-his (N-terminal domain of human CD73, residues 26-336, His tag) (human, UniProt P21589 26-336)
T2 sequence: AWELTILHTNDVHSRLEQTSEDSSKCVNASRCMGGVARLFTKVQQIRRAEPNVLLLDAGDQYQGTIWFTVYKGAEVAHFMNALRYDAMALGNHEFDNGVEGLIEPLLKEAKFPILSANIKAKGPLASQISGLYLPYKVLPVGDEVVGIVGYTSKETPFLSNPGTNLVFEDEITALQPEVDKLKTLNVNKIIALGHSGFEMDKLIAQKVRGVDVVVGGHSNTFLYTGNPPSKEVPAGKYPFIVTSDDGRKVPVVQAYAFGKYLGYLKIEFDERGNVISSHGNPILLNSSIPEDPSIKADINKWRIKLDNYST


Columns and labels:
[1] = target: T1, human CD73 on cells; test: cell-based or functional assay
[2] = target: T2, N-hCD73-his (N-terminal domain of human …); test: SPR, mAb captured on protein A
Method: For these experiments, protein A (Pierce) was immobilized to a density of 3000-4000 RU on flow cells 1-4 of a CM5 sensor chip (GE Healthcare) using standard ethyl(dimethylaminopropyl) carbodiimide (EDC)/N-hydroxysuccinimide […] chemistry, with ethanolamine blocking, in a running buffer of 0.01 M HEPES pH 7.4, 0.15 M NaCl, 3 mM EDTA, 0.005% v/v tween 20. […] The running buffer for the kinetic experiments was 10 mM sodium phosphate, 130 mM sodium chloride, 0.05% tween 20, pH 7.1. The surfaces were regenerated after each cycle using two 30 s pulses of 10 mM glycine pH 1.5 at a flow rate of 30 μl/min. Sensogram data was double-referenced and then fitted to a 1:1 Langmuir model using Biacore T100 evaluation software v2.0.4, to determine the association rate constant (ka), the dissociation rate constant (kd), and the equilibrium dissociation constant (KD).

| Binder | CD73 Inhibition S:B (inhibition versus background) [1] | CD73 Inhibition EC50 (nM), cAMP assay, Calu6 [1] | Kd [2] | koff [2] | kon [2] |
| --- | --- | --- | --- | --- | --- |
| CD73.4-IgG2.3-plusTHT (antibody) heavy: QVQLVESGGGVVQPGRSLRLSCAASGFTFSNYGMHWVRQAPGKGLEWVAVILYDGSNKYYPDSVKGRFTISRDNSKNTLYLQMNSLRAEDTAVYYCARGGSSWYPDSFDIWGQGTMVTVSSASTKGPSVFPLAPCSRSTSESTAALGCLVKDYFPEPVTVSWNSGALTSGVHTFPAVLQSSGLYSLSSVVTVPSSNFGTQTYTCNVDHKPSNTKVDKTVERKSCVETHTCPPCPAPPVAGPSVFLFPPKPKDTLMISRTPEVTCVVVDVSHEDPEVQFNWYVDGVEVHNAKTKPREEQFNSTFRVVSVLTVVHQDWLNGKEYKCKVSNKGLPAPIEKTISKTKGQPREPQVYTLPPSREEMTKNQVSLTCLVKGFYPSDIAVEWESNGQPENNYKTTPPMLDSDGSFFLYSKLTVDKSRWQQGNVFSCSVMHEALHNHYTQKSLSLSPGK light: not shown | 33 | – | – | – | – |
| CD73.4-IgG2.5-plusTHT (antibody) heavy: QVQLVESGGGVVQPGRSLRLSCAASGFTFSNYGMHWVRQAPGKGLEWVAVILYDGSNKYYPDSVKGRFTISRDNSKNTLYLQMNSLRAEDTAVYYCARGGSSWYPDSFDIWGQGTMVTVSSASTKGPSVFPLAPSSRSTSESTAALGCLVKDYFPEPVTVSWNSGALTSGVHTFPAVLQSSGLYSLSSVVTVPSSNFGTQTYTCNVDHKPSNTKVDKTVERKCCVETHTCPPCPAPPVAGPSVFLFPPKPKDTLMISRTPEVTCVVVDVSHEDPEVQFNWYVDGVEVHNAKTKPREEQFNSTFRVVSVLTVVHQDWLNGKEYKCKVSNKGLPAPIEKTISKTKGQPREPQVYTLPPSREEMTKNQVSLTCLVKGFYPSDIAVEWESNGQPENNYKTTPPMLDSDGSFFLYSKLTVDKSRWQQGNVFSCSVMHEALHNHYTQKSLSLSPGK light: not shown | 44 | 0.9 nM | – | – | – |
| CD73.4-IgG2.3-plusGGG (antibody) heavy: QVQLVESGGGVVQPGRSLRLSCAASGFTFSNYGMHWVRQAPGKGLEWVAVILYDGSNKYYPDSVKGRFTISRDNSKNTLYLQMNSLRAEDTAVYYCARGGSSWYPDSFDIWGQGTMVTVSSASTKGPSVFPLAPCSRSTSESTAALGCLVKDYFPEPVTVSWNSGALTSGVHTFPAVLQSSGLYSLSSVVTVPSSNFGTQTYTCNVDHKPSNTKVDKTVERKSCVEGGGCPPCPAPPVAGPSVFLFPPKPKDTLMISRTPEVTCVVVDVSHEDPEVQFNWYVDGVEVHNAKTKPREEQFNSTFRVVSVLTVVHQDWLNGKEYKCKVSNKGLPAPIEKTISKTKGQPREPQVYTLPPSREEMTKNQVSLTCLVKGFYPSDIAVEWESNGQPENNYKTTPPMLDSDGSFFLYSKLTVDKSRWQQGNVFSCSVMHEALHNHYTQKSLSLSPGK light: not shown | – | 1.26 nM | – | – | – |
| CD73.6-IgG2-C219S-IgG1.1f (antibody, also called CD73.6-IgG2CS IgG1.1f; mAb-CD73.6-Vh-hHC-IgG2-C219S-IgG1.1f) heavy: QVQLVESGGGVVQPGRSLRLSCAASGFTFSNYGMHWVRQAPGKGLEWVAVILYDSSNKYYPDSVKGRFTISRDNSKNTLYLQMNSLRAEDTAVYYCARGGSSWYPDSFDIWGQGTMVTVSSASTKGPSVFPLAPCSRSTSESTAALGCLVKDYFPEPVTVSWNSGALTSGVHTFPAVLQSSGLYSLSSVVTVPSSNFGTQTYTCNVDHKPSNTKVDKTVERKSCVECPPCPAPPVAGPSVFLFPPKPKDTLMISRTPEVTCVVVDVSHEDPEVKFNWYVDGVEVHNAKTKPREEQYNSTYRVVSVLTVLHQDWLNGKEYKCKVSNKALPSSIEKTISKAKGQPREPQVYTLPPSREEMTKNQVSLTCLVKGFYPSDIAVEWESNGQPENNYKTTPPVLDSDGSFFLYSKLTVDKSRWQQGNVFSCSVMHEALHNHYTQKSLSLSPGK light: not shown | – | – | 720 pM | 0.00022 s⁻¹ | 300000 M⁻¹ s⁻¹ |
| CD73.4-IgG2.5G1-KH (antibody) heavy: QVQLVESGGGVVQPGRSLRLSCAASGFTFSNYGMHWVRQAPGKGLEWVAVILYDGSNKYYPDSVKGRFTISRDNSKNTLYLQMNSLRAEDTAVYYCARGGSSWYPDSFDIWGQGTMVTVSSASTKGPSVFPLAPSSRSTSESTAALGCLVKDYFPEPVTVSWNSGALTSGVHTFPAVLQSSGLYSLSSVVTVPSSNFGTQTYTCNVDHKPSNTKVDKTVERKCCVECPPCPAPPVAGPSVFLFPPKPKDTLMISRTPEVTCVVVDVSHEDPEVKFNWYVDGVEVHNAKTKPREEQYNSTYRVVSVLTVLHQDWLNGKEYKCKVSNKALPAPIEKTISKAKGQPREPQVYTLPPSREEMTKNQVSLTCLVKGFYPSDIAVEWESNGQPENNYKTTPPVLDSDGSFFLYSKLTVDKSRWQQGNVFSCSVMHEALHNHYTQKSLSLSPGK light: not shown | 42 | 0.44 nM | – | – | – |
| CD73.4-IgG2.3G1-KH (antibody) heavy: QVQLVESGGGVVQPGRSLRLSCAASGFTFSNYGMHWVRQAPGKGLEWVAVILYDGSNKYYPDSVKGRFTISRDNSKNTLYLQMNSLRAEDTAVYYCARGGSSWYPDSFDIWGQGTMVTVSSASTKGPSVFPLAPCSRSTSESTAALGCLVKDYFPEPVTVSWNSGALTSGVHTFPAVLQSSGLYSLSSVVTVPSSNFGTQTYTCNVDHKPSNTKVDKTVERKSCVECPPCPAPPVAGPSVFLFPPKPKDTLMISRTPEVTCVVVDVSHEDPEVKFNWYVDGVEVHNAKTKPREEQYNSTYRVVSVLTVLHQDWLNGKEYKCKVSNKALPAPIEKTISKAKGQPREPQVYTLPPSREEMTKNQVSLTCLVKGFYPSDIAVEWESNGQPENNYKTTPPVLDSDGSFFLYSKLTVDKSRWQQGNVFSCSVMHEALHNHYTQKSLSLSPGK light: not shown | 52 | 1.7 nM | – | – | – |
| CD73.4-IgG2.5G1.1f-KH (antibody) heavy: QVQLVESGGGVVQPGRSLRLSCAASGFTFSNYGMHWVRQAPGKGLEWVAVILYDGSNKYYPDSVKGRFTISRDNSKNTLYLQMNSLRAEDTAVYYCARGGSSWYPDSFDIWGQGTMVTVSSASTKGPSVFPLAPSSRSTSESTAALGCLVKDYFPEPVTVSWNSGALTSGVHTFPAVLQSSGLYSLSSVVTVPSSNFGTQTYTCNVDHKPSNTKVDKTVERKCCVECPPCPAPPVAGPSVFLFPPKPKDTLMISRTPEVTCVVVDVSHEDPEVKFNWYVDGVEVHNAKTKPREEQYNSTYRVVSVLTVLHQDWLNGKEYKCKVSNKALPSSIEKTISKAKGQPREPQVYTLPPSREEMTKNQVSLTCLVKGFYPSDIAVEWESNGQPENNYKTTPPVLDSDGSFFLYSKLTVDKSRWQQGNVFSCSVMHEALHNHYTQKSLSLSPGK light: not shown | 45 | 0.87 nM | – | – | – |
| CD73.4-IgG2.5 (antibody) heavy: QVQLVESGGGVVQPGRSLRLSCAASGFTFSNYGMHWVRQAPGKGLEWVAVILYDGSNKYYPDSVKGRFTISRDNSKNTLYLQMNSLRAEDTAVYYCARGGSSWYPDSFDIWGQGTMVTVSSASTKGPSVFPLAPSSRSTSESTAALGCLVKDYFPEPVTVSWNSGALTSGVHTFPAVLQSSGLYSLSSVVTVPSSNFGTQTYTCNVDHKPSNTKVDKTVERKCCVECPPCPAPPVAGPSVFLFPPKPKDTLMISRTPEVTCVVVDVSHEDPEVQFNWYVDGVEVHNAKTKPREEQFNSTFRVVSVLTVVHQDWLNGKEYKCKVSNKGLPAPIEKTISKTKGQPREPQVYTLPPSREEMTKNQVSLTCLVKGFYPSDIAVEWESNGQPENNYKTTPPMLDSDGSFFLYSKLTVDKSRWQQGNVFSCSVMHEALHNHYTQKSLSLSPGK light: not shown | 51 | 2.17 nM | – | – | – |
